Experimental data: publication PMC10397247
Where two headings read alike, the source gives them in different places.

T1: 4H72-bA
T1 chain: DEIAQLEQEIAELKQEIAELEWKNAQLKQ

T2: 4H754-bA
T2 chain: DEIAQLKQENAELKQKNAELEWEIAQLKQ

T3: 4H797-bA
T3 chain: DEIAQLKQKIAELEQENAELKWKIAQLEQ

T4: 4H883-bA
T4 chain: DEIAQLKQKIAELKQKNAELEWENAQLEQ

T5: 4H908-bA
T5 chain: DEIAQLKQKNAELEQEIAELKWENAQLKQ

T6: 4H918-bA
T6 chain: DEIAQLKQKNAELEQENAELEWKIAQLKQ

T7: 4H953-bA
T7 chain: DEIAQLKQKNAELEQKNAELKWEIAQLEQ

T8: 4H967-bA
T8 chain: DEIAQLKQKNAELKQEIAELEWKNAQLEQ

T9: 4H391-AA
T9 chain: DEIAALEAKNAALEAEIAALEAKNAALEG

T10: 4H3920-AA
T10 chain: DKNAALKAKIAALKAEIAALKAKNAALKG

T11: 4H3939-AA
T11 chain: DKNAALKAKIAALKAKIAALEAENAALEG

T12: 4H428-AA
T12 chain: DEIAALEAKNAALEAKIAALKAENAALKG

T13: 4H478-AA
T13 chain: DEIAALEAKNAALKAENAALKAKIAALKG

T14: 4H497-AA
T14 chain: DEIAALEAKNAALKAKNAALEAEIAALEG

T15: 4H656-AA
T15 chain: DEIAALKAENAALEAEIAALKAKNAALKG

T16: 4H675-AA
T16 chain: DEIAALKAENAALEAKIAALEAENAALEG

T17: 4H971-AA
T17 chain: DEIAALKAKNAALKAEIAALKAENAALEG

T18: 4H3120-AA
T18 chain: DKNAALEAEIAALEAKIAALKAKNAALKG

T19: 4H3130-AA
T19 chain: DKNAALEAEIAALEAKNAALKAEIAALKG

T20: 4H3165-AA
T20 chain: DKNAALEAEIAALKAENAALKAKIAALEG

T21: 4H3381-AA
T21 chain: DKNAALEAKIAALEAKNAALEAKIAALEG

T22: 4H3395-AA
T22 chain: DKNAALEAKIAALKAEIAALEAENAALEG

T23: 4H3410-AA
T23 chain: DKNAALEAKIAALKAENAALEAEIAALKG

T24: 4H3590-AA
T24 chain: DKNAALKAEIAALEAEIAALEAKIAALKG

T25: 4H3697-AA
T25 chain: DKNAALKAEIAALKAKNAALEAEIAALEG

T26: 4H3753-AA
T26 chain: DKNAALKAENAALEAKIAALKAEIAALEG

T27: 4H3865-AA
T27 chain: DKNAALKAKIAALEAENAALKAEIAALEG

T28: 4H458-AA
T28 chain: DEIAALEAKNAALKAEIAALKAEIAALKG

T29: 4H485-AA
T29 chain: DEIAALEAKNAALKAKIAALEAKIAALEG

T30: 4H536-AA
T30 chain: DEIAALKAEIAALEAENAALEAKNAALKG

T31: 4H570-AA
T31 chain: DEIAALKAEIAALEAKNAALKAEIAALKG

T32: 4H629-AA
T32 chain: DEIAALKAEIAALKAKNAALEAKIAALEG

T33: 4H710-AA
T33 chain: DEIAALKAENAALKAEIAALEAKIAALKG

T34: 4H745-AA
T34 chain: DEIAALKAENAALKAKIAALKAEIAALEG

T35: 4H797-AA
T35 chain: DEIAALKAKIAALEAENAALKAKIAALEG

T36: 4H850-AA
T36 chain: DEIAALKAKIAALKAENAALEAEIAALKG

T37: 4H891-AA
T37 chain: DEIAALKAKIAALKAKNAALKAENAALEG

T38: 4H909-AA
T38 chain: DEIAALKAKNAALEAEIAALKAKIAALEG

T39: 4H930-AA
T39 chain: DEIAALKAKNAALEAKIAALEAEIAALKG

T40: 4H94-AA
T40 chain: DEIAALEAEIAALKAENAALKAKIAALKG

T41: 4H446-AA
T41 chain: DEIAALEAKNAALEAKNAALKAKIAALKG

T42: 4H464-AA
T42 chain: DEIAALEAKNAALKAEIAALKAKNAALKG

T43: 4H483-AA
T43 chain: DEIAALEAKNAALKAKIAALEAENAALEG

T44: 4H63-AA
T44 chain: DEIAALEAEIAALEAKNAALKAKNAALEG

T45: 4H850-bH
T45 chain: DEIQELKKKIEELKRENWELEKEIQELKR

T46: 4H906-bH
T46 chain: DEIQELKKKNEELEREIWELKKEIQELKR


Key:
4H72-bA = molecular target: T1, 4H72-bA; assay: two-hybrid library CCNG1;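 note: natural log of median RNA to DNA barcode read ratio; higher means stronger binding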
4H754-bA = molecular target: T2, 4H754-bA; assay: two-hybrid library CCNG1;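 note: natural log of median RNA to DNA barcode read ratio; higher means stronger binding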
4H797-bA = molecular target: T3, 4H797-bA; assay: two-hybrid library CCNG1;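 note: natural log of median RNA to DNA barcode read ratio; higher means stronger binding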
4H883-bA = molecular target: T4, 4H883-bA; assay: two-hybrid library CCNG1;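 note: natural log of median RNA to DNA barcode read ratio; higher means stronger binding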
4H908-bA = molecular target: T5, 4H908-bA; assay: two-hybrid library CCNG1;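 note: natural log of median RNA to DNA barcode read ratio; higher means stronger binding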
4H918-bA = molecular target: T6, 4H918-bA; assay: two-hybrid library CCNG1;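 note: natural log of median RNA to DNA barcode read ratio; higher means stronger binding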
4H953-bA = molecular target: T7, 4H953-bA; assay: two-hybrid library CCNG1
4H967-bA = molecular target: T8, 4H967-bA; assay: two-hybrid library CCNG1
4H391-AA = molecular target: T9, 4H391-AA; assay: two-hybrid library CCmax
4H3920-AA = molecular target: T10, 4H3920-AA; assay: two-hybrid library CCmax; conditions: mean of both orientations
4H3939-AA = molecular target: T11, 4H3939-AA; assay: two-hybrid library CCmax; conditions: mean of both orientations
4H428-AA = molecular target: T12, 4H428-AA; assay: two-hybrid library CCmax; conditions: mean of both orientations
4H478-AA = molecular target: T13, 4H478-AA; assay: two-hybrid library CCmax; conditions: mean of both orientations
4H497-AA = molecular target: T14, 4H497-AA; assay: two-hybrid library CCmax; conditions: mean of both orientations
4H656-AA = molecular target: T15, 4H656-AA; assay: two-hybrid library CCmax; conditions: mean of both orientations
4H675-AA = molecular target: T16, 4H675-AA; assay: two-hybrid library CCmax; conditions: mean of both orientations
4H971-AA = molecular target: T17, 4H971-AA; assay: two-hybrid library CCmax; conditions: mean of both orientations
4H3120-AA = molecular target: T18, 4H3120-AA; assay: two-hybrid library CCmax
4H3130-AA = molecular target: T19, 4H3130-AA; assay: two-hybrid library CCmax
4H3165-AA = molecular target: T20, 4H3165-AA; assay: two-hybrid library CCmax; conditions: mean of both orientations
4H3381-AA = molecular target: T21, 4H3381-AA; assay: two-hybrid library CCmax; conditions: mean of both orientations
4H3395-AA = molecular target: T22, 4H3395-AA; assay: two-hybrid library CCmax; conditions: mean of both orientations
4H3410-AA = molecular target: T23, 4H3410-AA; assay: two-hybrid library CCmax; conditions: mean of both orientations
4H3590-AA = molecular target: T24, 4H3590-AA; assay: two-hybrid library CCmax; conditions: mean of both orientations
4H3697-AA = molecular target: T25, 4H3697-AA; assay: two-hybrid library CCmax; conditions: mean of both orientations
4H3753-AA = molecular target: T26, 4H3753-AA; assay: two-hybrid library CCmax; conditions: mean of both orientations
4H3865-AA = molecular target: T27, 4H3865-AA; assay: two-hybrid library CCmax; conditions: mean of both orientations
4H458-AA = molecular target: T28, 4H458-AA; assay: two-hybrid library CCmax; conditions: mean of both orientations
4H485-AA = molecular target: T29, 4H485-AA; assay: two-hybrid library CCmax; conditions: mean of both orientations
4H536-AA = molecular target: T30, 4H536-AA; assay: two-hybrid library CCmax; conditions: mean of both orientations
4H570-AA = molecular target: T31, 4H570-AA; assay: two-hybrid library CCmax; conditions: mean of both orientations
4H629-AA = molecular target: T32, 4H629-AA; assay: two-hybrid library CCmax; conditions: mean of both orientations
4H710-AA = molecular target: T33, 4H710-AA; assay: two-hybrid library CCmax; conditions: mean of both orientations
4H745-AA = molecular target: T34, 4H745-AA; assay: two-hybrid library CCmax; conditions: mean of both orientations
4H797-AA = molecular target: T35, 4H797-AA; assay: two-hybrid library CCmax; conditions: mean of both orientations
4H850-AA = molecular target: T36, 4H850-AA; assay: two-hybrid library CCmax; conditions: mean of both orientations
4H891-AA = molecular target: T37, 4H891-AA; assay: two-hybrid library CCmax; conditions: mean of both orientations
4H909-AA = molecular target: T38, 4H909-AA; assay: two-hybrid library CCmax; conditions: mean of both orientations
4H930-AA = molecular target: T39, 4H930-AA; assay: two-hybrid library CCmax; conditions: mean of both orientations
4H94-AA = molecular target: T40, 4H94-AA; assay: two-hybrid library CCmax; conditions: mean of both orientations
4H446-AA = molecular target: T41, 4H446-AA; assay: two-hybrid library CCmax
4H464-AA = molecular target: T42, 4H464-AA; assay: two-hybrid library CCmax; conditions: mean of both orientations
4H483-AA = molecular target: T43, 4H483-AA; assay: two-hybrid library CCmax; conditions: mean of both orientations
4H63-AA = molecular target: T44, 4H63-AA; assay: two-hybrid library CCmax; conditions: mean of both orientations
4H850-bH = molecular target: T45, 4H850-bH; assay: two-hybrid library CCNG1
4H906-bH = molecular target: T46, 4H906-bH; assay: two-hybrid library CCNG1

Binder | interaction score (4H3165-AA) | interaction score (4H3381-AA) | interaction score (4H3395-AA) | interaction score (4H3410-AA) | interaction score (4H3590-AA) | interaction score (4H3697-AA) | interaction score (4H3753-AA) | interaction score (4H3865-AA) | interaction score (4H458-AA) | interaction score (4H485-AA) | interaction score (4H536-AA) | interaction score (4H570-AA) | interaction score (4H629-AA) | interaction score (4H710-AA) | interaction score (4H745-AA) | interaction score (4H797-AA) | interaction score (4H850-AA) | interaction score (4H891-AA) | interaction score (4H909-AA) | interaction score (4H930-AA) | further results
DEIAQLEQEIAELKQEIAELEWKNAQLKQ [4H72-bA] |  |  |  |  |  |  |  |  |  |  |  |  |  |  |  |  |  |  |  |  | interaction score (4H72-bA): 0.83; interaction score (4H754-bA): -0.173; interaction score (4H797-bA): -0.956; interaction score (4H883-bA): 1.05; interaction score (4H908-bA): -0.464; interaction score (4H918-bA): -0.479; interaction score (4H953-bA): -0.161; interaction score (4H967-bA): -0.0446
DEIAALEAKNAALEAEIAALEAKNAALEG [4H391-AA] |  |  |  |  |  |  |  |  |  |  |  |  |  |  |  |  |  |  |  |  | interaction score (4H391-AA): -1.79; interaction score (4H3920-AA): -1.23; interaction score (4H3939-AA): -1.7; interaction score (4H428-AA): -0.212; interaction score (4H478-AA): -1.59; interaction score (4H497-AA): -2; interaction score (4H656-AA): -0.583; interaction score (4H675-AA): -1.11; interaction score (4H971-AA): -1.02
DEIAALEAKNAALEAKNAALKAKIAALKG [4H446-AA] |  |  |  |  |  |  |  |  |  |  |  |  |  |  |  |  |  |  |  |  | interaction score (4H446-AA): -1.68; interaction score (4H464-AA): -1.77; interaction score (4H483-AA): -2.13; interaction score (4H63-AA): -1.67
DEIQELKKKIEELKRENWELEKEIQELKR [4H850-bH] |  |  |  |  |  |  |  |  |  |  |  |  |  |  |  |  |  |  |  |  | interaction score (4H850-bH): 0.554; interaction score (4H906-bH): -0.227

More lines, main results first:

interaction score (4H3165-AA) | interaction score (4H3381-AA) | interaction score (4H3395-AA) | interaction score (4H3410-AA) | interaction score (4H3590-AA) | interaction score (4H3697-AA) | interaction score (4H3753-AA) | interaction score (4H3865-AA) | interaction score (4H458-AA) | interaction score (4H485-AA) | interaction score (4H536-AA) | interaction score (4H570-AA) | interaction score (4H629-AA) | interaction score (4H710-AA) | interaction score (4H745-AA) | interaction score (4H797-AA) | interaction score (4H850-AA) | interaction score (4H891-AA) | interaction score (4H909-AA) | interaction score (4H930-AA) | Binder | further results
-1.33 | -1.79 | 2.17 | -1.25 | 1.08 | -1.39 | 0.619 | -1.52 | -1.3 | -0.737 | 1.51 | -0.988 | -1.66 | -1.56 | -1.09 | -1.9 | -0.918 | -0.991 | -1.58 | -1.5 | DKNAALEAEIAALEAKIAALKAKNAALKG [4H3120-AA] | interaction score (4H3120-AA): 1.15; interaction score (4H3130-AA; mean of both orientations): -0.632; interaction score (4H94-AA): -1.07
-1.3 | -1.07 | -1.29 | 2.07 | 0.624 | -0.0288 | -0.789 | 1.11 | -3.23 | -1.58 | -0.902 | -0.712 | -1.31 | -1.31 | -1.54 | -1.21 | 2.04 | -1.99 | -1.06 | -1.73 | DKNAALEAEIAALEAKNAALKAEIAALKG [4H3130-AA] | interaction score (4H3130-AA): 0.118; interaction score (4H94-AA): -0.202
